Results published in PMC10300128.

Target: human angiotensin-converting enzyme 2 (residues 19–615), mouse IgG2a Fc fusion (human) (UniProt Q9BYF1)
Experiment: BLI

Chain of UniProt Q9BYF1 (Q9BYF1 19-615): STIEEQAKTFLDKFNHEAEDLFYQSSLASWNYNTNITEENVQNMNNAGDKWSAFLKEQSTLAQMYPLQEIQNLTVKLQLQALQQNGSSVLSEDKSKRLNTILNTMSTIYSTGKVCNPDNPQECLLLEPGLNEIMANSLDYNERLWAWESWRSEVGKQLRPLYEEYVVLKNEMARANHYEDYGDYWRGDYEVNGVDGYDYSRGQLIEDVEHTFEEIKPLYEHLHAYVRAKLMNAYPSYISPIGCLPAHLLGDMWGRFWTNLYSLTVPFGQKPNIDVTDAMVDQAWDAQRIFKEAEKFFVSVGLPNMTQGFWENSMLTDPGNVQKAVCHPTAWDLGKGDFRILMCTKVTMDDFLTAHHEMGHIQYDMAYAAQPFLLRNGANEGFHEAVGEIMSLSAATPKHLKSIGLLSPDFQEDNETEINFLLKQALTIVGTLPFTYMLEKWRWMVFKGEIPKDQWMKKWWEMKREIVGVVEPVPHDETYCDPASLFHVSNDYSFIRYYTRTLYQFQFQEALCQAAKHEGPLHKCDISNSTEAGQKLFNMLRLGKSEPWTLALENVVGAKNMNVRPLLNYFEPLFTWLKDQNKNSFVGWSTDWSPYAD

Q: Which Kd does the source give for RhGB07 spike trimer (natural protein) here?
A: Its Kd is 253 nM.
